According to patent publication US6566088B1, “Prolyl-4-hydroxylases” (Board of Regents, The University of Texas System, priority 2001, dated 2003):

Key:
[1] = target: human HIF-1a ODD peptide (Homo sapiens, UniProt Q16665, M561A/M568A); assay: [35S]-pVHL pull-down prolyl hydroxylase assay with biotinylated HIF-1a ODD peptide; type: biochemical; settings: for prolyl hydroxylase activity (pVHL association with the biotinylated peptide): enzyme in vitro transcribed/translated in rabbit reticulocyte lysate, ascorbate, 2-oxoglutarate, FeSO4 present
[2] = system: transfected cell cultures; assay: Visual inspection of cell cultures transfected with HPH 1 expression vector
[3] = system: CMV-driven luciferase reporter; assay: Constitutive CMV-driven luciferase reporter co-transfection; type: cell-based, human
[4] = system: HIF-1a activation of the HRE-driven reporter; assay: Hypoxia-responsive (HRE) luciferase reporter co-transfection in 293 cells; type: cell-based, human
Text: To test whether these HPH enzymes represent part of the hypoxic response pathway in vivo we first co-transfected (21) human embryonic kidney 293 cells with a hypoxia-responsive luciferase reporter (22) and increasing amounts of a vector expressing human HIF-1a under the control of the constitutive CMV promoter. Forced overexpression of HIF-1a can overcome the degradation pathway, resulting in accumulation of the HIF transcription factor under normoxic conditions and subsequent induction of the HRE-containing HIF reporter gene (22). […] Mutation of His^135, Asp^137 or His^196 to alanine eliminated the interfering activity of HPH 1 in these transfection assays. […] Finally, the ability of HPH 1 to diminish induction of the HIF-responsive luciferase reporter was lost when cells were incubated in an atmosphere containing 0.5% O2.
21. Transfection experiments were performed as in (22) with DNA amounts indicated in the text. Western blot analysis using an antibody specific for the carboxy-terminal V5 tag was used to confirm expression of each polypeptide following transfection of 1 μg of each expression vector.

Row | Molecule | prolyl hydroxylase activity (pVHL association with the biotinylated peptide) [1] | also measured
1 | HPH 2: human HPH 1 paralog, Genbank AF229245; splice-variant in which residues 76-177 are omitted was used (protein, left off: small tags and cut ends) ANDSGGPGGPSPSERDRQYCELCGKMENLLRCSRCRSSFYCCKEHQRQDWKKHKLVCQGSEGALGHGVGPHQHSGPAPPAAVPPPRAGAREPRKAAARRDNASGDAAKGKVKAKPPADPAAAASPCRAAAGGQGSAVAAEAEPGKEEPPARSSLFQEKANLYPPSNTPGDALSPGGGLRPNGQTKPLPALKLALEYIVPCMNKHGICVVDDFLGKETGQQIGDEVRALHDTGKFTDGQLVSQKSDSSKDIRGDKITWIEGKEPGCETIGLLMSSMDDLIRHCNGKLGSYKINGRTKAMVACYPGNGTGYVRHVDNPNGDGRCVTCIYYLNKDWDAKVSGGILRIFPEGKAQFADIEPKFDRLLFFWSDRRNPHEVQPAYATRYAITVWYFDADERARAKVKYLTGEKGVRVELNKPSDSVGKDVF | catalyze the hydroxylation | hydroxylation of the HIF-1a peptide substrate ([1]; enzyme expressed in bacterial cells and purified by affinity chromatography): able to hydroxylate
2 | HPH 1: human HIF prolyl hydroxylase 1, SEQ ID NO:1, Genbank XM_012332 (protein, human) MPLGHIMRLDLEKIALEYIVPCLHEVGFCYLDNFLGEVVGDCVLERVKQLHCTGALRDGQLAGPRAGVSKRHLRGDQITWIGGNEEGCEAISFLLSLIDRLVLYCGSRLGKYYVKERSKAMVACYPGNGTGYVRHVDNPNGDGRCITCIYYLNKNWDAKLHGGILRIFPEGKSFIADVEPIFDRLLFFWSDRRNPHEVQPSYATRYAMTVWYFDAEERAEAKKKFRNLTRKTESALTED | able to enhance pVHL association | programmed cell death [2]: no overt evidence of programmed cell death; effect on CMV-driven luciferase reporter expression [3]: did not attenuate; effect on induction of the HIF-dependent luciferase reporter ([4]; 293 cells, normoxic, 30 ng or 100 ng HIF-1a expression vector, 3 ng CMV-driven vector): able to attenuate; ability to diminish induction of the HIF-responsive luciferase reporter ([4]; atmosphere containing 0.5% O2): lost
3 | D137A: HPH 1 with Asp137 changed to alanine (protein, left off: small tags and cut ends) MPLGHIMRLDLEKIALEYIVPCLHEVGFCYLDNFLGEVVGDCVLERVKQLHCTGALRDGQLAGPRAGVSKRHLRGDQITWIGGNEEGCEAISFLLSLIDRLVLYCGSRLGKYYVKERSKAMVACYPGNGTGYVRHVANPNGDGRCITCIYYLNKNWDAKLHGGILRIFPEGKSFIADVEPIFDRLLFFWSDRRNPHEVQPSYATRYAMTVWYFDAEERAEAKKKFRNLTRKTESALTED | eliminated the prolyl hydroxylase activity | –
4 | H135A: HPH 1 with His135 changed to alanine (protein, left off: small tags and cut ends) MPLGHIMRLDLEKIALEYIVPCLHEVGFCYLDNFLGEVVGDCVLERVKQLHCTGALRDGQLAGPRAGVSKRHLRGDQITWIGGNEEGCEAISFLLSLIDRLVLYCGSRLGKYYVKERSKAMVACYPGNGTGYVRAVDNPNGDGRCITCIYYLNKNWDAKLHGGILRIFPEGKSFIADVEPIFDRLLFFWSDRRNPHEVQPSYATRYAMTVWYFDAEERAEAKKKFRNLTRKTESALTED | eliminated the prolyl hydroxylase activity | –
5 | H196A: HPH 1 with His196 changed to alanine (protein, left off: small tags and cut ends) MPLGHIMRLDLEKIALEYIVPCLHEVGFCYLDNFLGEVVGDCVLERVKQLHCTGALRDGQLAGPRAGVSKRHLRGDQITWIGGNEEGCEAISFLLSLIDRLVLYCGSRLGKYYVKERSKAMVACYPGNGTGYVRHVDNPNGDGRCITCIYYLNKNWDAKLHGGILRIFPEGKSFIADVEPIFDRLLFFWSDRRNPAEVQPSYATRYAMTVWYFDAEERAEAKKKFRNLTRKTESALTED | eliminated the prolyl hydroxylase activity | –
